These are literature values, as cited in publication PMC8525647.

This series concerns the target RAG2 (Homo sapiens) (UniProt P55895).
Sequence of UniProt P55895 (P55895 whole entry): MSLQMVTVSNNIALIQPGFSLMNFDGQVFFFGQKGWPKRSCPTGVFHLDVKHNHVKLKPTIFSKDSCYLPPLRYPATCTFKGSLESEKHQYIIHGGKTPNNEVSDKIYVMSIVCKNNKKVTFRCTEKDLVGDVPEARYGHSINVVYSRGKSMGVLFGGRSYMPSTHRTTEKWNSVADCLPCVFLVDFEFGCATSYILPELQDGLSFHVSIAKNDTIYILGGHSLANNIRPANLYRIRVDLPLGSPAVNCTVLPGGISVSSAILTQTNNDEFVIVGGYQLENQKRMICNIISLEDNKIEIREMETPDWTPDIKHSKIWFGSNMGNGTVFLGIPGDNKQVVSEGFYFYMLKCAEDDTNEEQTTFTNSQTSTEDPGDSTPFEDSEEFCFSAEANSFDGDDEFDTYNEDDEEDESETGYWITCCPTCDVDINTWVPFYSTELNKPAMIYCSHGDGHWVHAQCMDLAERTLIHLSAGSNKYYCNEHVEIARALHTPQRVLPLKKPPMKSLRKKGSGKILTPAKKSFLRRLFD

Regarding RAG1 (from UniProt P15918), the Kd is 400 nM.

The Kd is the free concentration of one partner at which half of the binding sites on the other are occupied at equilibrium, for simple one-to-one binding.
